Experimental data: patent US20210087289A1
One block for each binder: values may come before it.

Tests used:
[1] = biological target: human CD44v6 (CD44 variant containing exon v6), as expressed on PC9 cells and in human tissues (human), P16070; assay: cell-based or functional assay
[2] = biological target: human CD44v9 (CD44 variant containing exon v9), as expressed on PC9 cells and in human tissues (human) (UniProt P16070); assay: FACS titration on PC9 cells (30000 pM to 0.1 pM, 3 fold serial dilution), Alexa488 anti-mouse IgG, MFI
Sequence of UniProt P16070 (P16070 21-742, change not shown): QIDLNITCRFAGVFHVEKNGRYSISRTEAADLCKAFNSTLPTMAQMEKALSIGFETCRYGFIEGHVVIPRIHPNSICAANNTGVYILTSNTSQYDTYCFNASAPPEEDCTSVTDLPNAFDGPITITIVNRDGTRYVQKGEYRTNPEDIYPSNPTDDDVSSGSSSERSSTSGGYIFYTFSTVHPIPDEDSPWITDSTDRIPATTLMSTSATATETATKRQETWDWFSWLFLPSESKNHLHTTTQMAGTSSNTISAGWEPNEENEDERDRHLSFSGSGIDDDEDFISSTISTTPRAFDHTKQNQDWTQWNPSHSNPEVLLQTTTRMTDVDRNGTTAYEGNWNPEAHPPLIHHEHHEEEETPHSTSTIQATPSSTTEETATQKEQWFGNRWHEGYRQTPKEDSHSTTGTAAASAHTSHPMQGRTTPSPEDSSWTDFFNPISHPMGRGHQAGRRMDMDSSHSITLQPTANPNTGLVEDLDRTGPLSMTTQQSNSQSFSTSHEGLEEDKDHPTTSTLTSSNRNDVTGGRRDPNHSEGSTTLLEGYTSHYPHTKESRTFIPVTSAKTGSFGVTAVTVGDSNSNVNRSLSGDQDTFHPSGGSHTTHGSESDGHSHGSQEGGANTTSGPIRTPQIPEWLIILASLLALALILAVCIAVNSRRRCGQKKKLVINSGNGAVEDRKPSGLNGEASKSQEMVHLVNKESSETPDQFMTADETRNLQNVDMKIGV

[3] = biological target: human CD44v9 (CD44 variant containing exon v9), as expressed on PC9 cells and in human tissues (human) (UniProt P16070); assay: cell-based or functional assay

B1: mAb119-ADC (AMT119), mAb119 conjugated with MC-vc-PAB-MMAE (protein)
VH: EVQLQESGPELKKPGETVKISCKASGYIFTNYGMNWVKQAPGKGLKWMGWINTYTGEPTYADDFKGRFAFSLETSASTAYLQINNLKNEDTATYFCARTDYYGSSYWYFDVWGAGTTVTVSS
VL: DIQMTQTTSSLSASLGDRVTITCSASQGISNYLNWYQQKPDGTVKLLIFYTSTLPSGVPSRFSGSGSGTDYSLTIRNLEPEDFATYCCQQYSKFPYTFGGGTKLEIK
modifications: here or on the partner: MC-vc-PAB-MMAE conjugated to the antibody (average DAR about 6); attachment residues and chain not stated
IC50 of cytotoxicity (growth inhibition) in PC9 cells [1]: 2.6 nM
IC50 of cytotoxicity (growth inhibition) in TE1 cells [1]: 39 nM

Kd [2]: 0.98 nM
B2: anti-CD44v9 monoclonal antibody mAb116 (antibody, V domains shown)
VH: QVQLQQSGAELVKPGASVKLSCTASGFNIKDTYMHWVKQRPEQGLEWIGRIDPANGNTKYDPKFQGKATITADTSSNTAYLQLSSLTSEDTAVYYCASRGEGTGFAYWGLGTLVTVSA
VL: DIVMTQSAPSVPVTPGESVSISCRSSKSLLHSNGNTYLYWFLQRPGQSPQLLIHRMSNLASGVPDRFSGSGSGTAFTLRISRVEAEDVGVYYCMQHLEYPFTFGGGTKLEIK
IC50 of PC9 growth inhibition (indirect cytotoxicity, mAb116 with 2 µg/mL MMAE-conjugated goat anti mouse IgG, 72 hrs, CCK8) [3]: 0.03 nM
